# B1: wheat Sr35 (Triticum monococcum; TmSr35) [change]/[change], untagged (receptor)
# chain: MEIAMGAIGSELPKEGELLIGEITLEKKVRKGIESLITELKLMQAVLSKVSKVPADQLDEGVKIWAGNVKELSYQMEDIVDAFMVRVGDGGESTNPKNRVKKILKKVKKLFKNGKDLHRISAALEEVVLQAKQLAELRQRYEQEMRDTSANTSVDPRMMALYTDVTELVGIEETRDKLINMLTEGDDWSKHPLKTISIVGFGGLGKTTLAKAAYDKIKVQFDCGAFVSVSRNPEMKKVLKDILYGLDKVKYENIHNAARDEKYLIDDIIEFLNDKRYLIVIDDIWNEKAWELIKCAFSKKSPGSRLITTTRNVSVSEACCSSEDDIYRMEPLSNDVSRTLFCKRIFSQEEGCPQELLKVSEEILKKCGGVPLAIITIASLLANKGHIKAKDEWYALLSSIGHGLTKNRSLEQMKKILLFSYYDLPSYLKPCLLYLSIFPEDREIRRARLIWRWISEGFVYSEKQDISLYELGDSYFNELVNRSMIQPIGIDDEGKVKACRVHDMVLDLICSLSSEENFVTILDDPRRKMPNSESKVRRLSIQNSKIDVDTTRMEHMRSVTVFSDNVVGKVLDISRFKVLRVLDLEGCHVSDVGYVGNLLHLRYLGLKGTHVKDLPMEIGKLQFLLTLDLRGTKIEVLPWSVVQLRRLMCLYVDYGMKLPSGIGNLTFLEVLDDLGLSDVDLDFVKELGRLTKLRVLRLDFHGFDQSMGKALEESISNMYKLDSLDVFVNRGLINCLSEHWVPPPRLCRLAFPSKRSWFKTLPSWINPSSLPLLSYLDITLFEVRSEDIQLLGTLPALVYLEIWNYSVFEEAHEVEAPVLSSGAALFPCATECRFIGIGAVPSMFPQGAAPRLKRLWFTFPAKWISSENIGLGMRHLPSLQRVVVDVISEGASREEADEAEAALRAAAEDHPNRPILDIW
# Molecular target: the molecule itself
# Assay: negative-staining EM
protein,measurement,value
B1,stoichiometry N,5
